Source: article PMC8294330, “A cooperative PNPase-Hfq-RNA carrier complex facilitates bacterial riboregulation” (Molecular Cell, 2021)

Target: the molecule itself
Test: cryo-EM structure; apo PNPase and PNPase with 3'ETSleuZ RNA; 8-12 uM in 20 mM Tris-HCl pH 8, 2.5 mM MgCl2, 150 mM KCl, 1 mM TCEP, 8 mM CHAPSO added before blotting

B1: Escherichia coli polynucleotide phosphorylase (PNPase), wild type (enzyme, UniProt P05055 1-711, looked up)
chain: MLNPIVRKFQYGQHTVTLETGMMARQATAAVMVSMDDTAVFVTVVGQKKAKPGQDFFPLTVNYQERTYAAGRIPGSFFRREGRPSEGETLIARLIDRPIRPLFPEGFVNEVQVIATVVSVNPQVNPDIVAMIGASAALSLSGIPFNGPIGAARVGYINDQYVLNPTQDELKESKLDLVVAGTEAAVLMVESEAQLLSEDQMLGAVVFGHEQQQVVIQNINELVKEAGKPRWDWQPEPVNEALNARVAALAEARLSDAYRITDKQERYAQVDVIKSETIATLLAEDETLDENELGEILHAIEKNVVRSRVLAGEPRIDGREKDMIRGLDVRTGVLPRTHGSALFTRGETQALVTATLGTARDAQVLDELMGERTDTFLFHYNFPPYSVGETGMVGSPKRREIGHGRLAKRGVLAVMPDMDKFPYTVRVVSEITESNGSSSMASVCGASLALMDAGVPIKAAVAGIAMGLVKEGDNYVVLSDILGDEDHLGDMDFKVAGSRDGISALQMDIKIEGITKEIMQVALNQAKGARLHILGVMEQAINAPRGDISEFAPRIHTIKINPDKIKDVIGKGGSVIRALTEETGTTIEIEDDGTVKIAATDGEKAKHAIRRIEEITAEIEVGRVYTGKVTRIVDFGAFVAIGGGKEGLVHISQIADKRVEKVTDYLQMGQEVPVKVLEVDRQGRIRLSIKEATEQSQPAAAPEAPAAEQGE
notes: polynucleotide phosphorylase (PNPase), Escherichia coli, full-length enzyme with RNase PH core, KH and S1 domains; Preparation follows Bandyra et al., 2016; no tag is named for the purified protein; also called wild-type PNPase; PNPase WT
- stoichiometry N: 3
